How the values were obtained:
[1] = Peptide content (assay) of lyophilized drug product by UPLC-UV at 220 nm, method according to the invention (USP reserpine reference standard, RRF); assay type: physicochemical; details: method according to the invention (USP RS)
Description: The UPLC method similar to Example 1 was used for the quantification of analytes (i.e. the individual peptides) in mixtures DP-5P (SEQ ID NO: 1-5) and DP-7P (SEQ ID NO: 6-12) and for the determination of content uniformity of mixtures DP-5P and DP-7P (lyophilized product). The method is based on the use of an external reference standard. The relative response factor (ratio of molar extinction coefficients, RRF) against this external reference standard has been established for each peptide. The purity, individual related substances, and the assay of DP-5P and DP-7P were determined by reversed phase rapid HPLC (UPLC) using a mobile phase gradient of ACN/IPA and water and UV detection at λ220 nm.
The following lyophilized peptide compositions were used: DP-5P comprising peptides represented herein by SEQ ID NO: 1-5 admixed at equal net weights of 0.40 mg of each peptide per vial (total amount of protein per vial being 2.00 mg) and 0.56 mg TFA per vial; and DP-7P comprising peptides represented herein by SEQ ID NO: 6-12 admixed at equal net weights of 0.40 mg of each peptide per vial (total amount of protein per vial being 2.80 mg) and 0.96 mg TFA per vial. The following chemicals were used: Acetonitrile, (Biosolve, 01204102); UPLC water, (Type 1, milli-Q); trifluoroacetic acid, (Chem Lab, CLoo.2094.0001), 2-propanol, (UPLC/MS grade, Biosolve, 16264102); Reserpine, (USP, Sigma Aldrich, 1601000). The following equipment was used: QuanRecovery vials, (Waters, 186009186); UPLC pump equipped with a gradient system, autosampler, and UV detection (Waters Acquity or equivalent) and mixer volume 425 μL.
• Mobile phase A: 0.1% (v/v) TFA in water • Mobile phase B: 0.1% (v/v) TFA in 70/30 ACN/IPA • Diluent A: 0.05% (v/v) TFA in water • Diluent B: 0.05% (v/v) TFA in ACN • Blank solution: 80/20 (v/v) diluent A/diluent B • Purge solvent: 80/20 (v/v) water/ACN • Needle wash: 0.05% (v/v) TFA in 80/20 (v/v) water/ACN
5.00 mg Reserpine reference material was accurately weighed and added into a 50 mL volumetric flask. 40.0 mL of blank solution was added, by means of a volumetric pipette. The solution was stirred for 10 min, by means of a magnetic stirrer, until fully dissolved. The solution was diluted to volume with blank solution and mixed well.
Transfer of 2.0 mL, by means of a volumetric pipette, of stock reference solution 1 into a 20 mL volumetric flask. Diluted to volume with blank solution and homogenized.
This sample preparation was setup for lyophilized products DP-5P and DP-7P in an initially sealed container. Before opening and dissolving the drug product, the vials were equilibrated at room temperature for at least 1 hour. The content of the vial was dissolved with 0.8 mL of diluent B, and stirred for 20 min, using a magnetic stirrer. 3.2 mL of diluent A were added. The solution was stirred well for 20 min, using a magnetic stirrer. After dissolving the content of the vial, the sample vial was kept on the lab bench for 30 minutes. The solution was stirred briefly and transferred into an HPLC vial.
• Column: Advance Bio Peptide Map (2.7 μm, 250 x 2.1 mm) • Sample matrix 0.05%v/v TFA in ACN : water (1:4 v/v) • Sample concentration 100 μg/mL net peptide (of each drug substance), duplicate • Injection volume: 10 μL • Column temperature: 40° C. • Sample temperature: 5° C. • Detection: UV (λ=220 nm) • Flow rate: 0.2 mL/min • Run time: 65 min • Purge solvent: 80/20 (v/v) water/ACN • Needle wash: 0.05% (v/v) TFA in 80/20 water/ACN (v/v) (20 s) • Seal wash: 90/10 (v/v) water/MeOH • Elution mode: Gradient elution • Eluent A: 0.1%v/v TFA in water • Eluent B: 0.1%v/v TFA in ACN/IPA (70:30 v/v)
The RRF was determined for all 12 peptides, enabling the quantification of each peptide against a reserpine as shown above. For the determination, the absorbance of each peptide in a solution comprising said peptide at a known concentration, and of a reference standard solution comprising reserpine at a known concentration, were measured at 220 nm. […]

[2] = Peptide content (assay) of lyophilized drug product by UPLC-UV at 220 nm, conventional method (peptide as reference standard); assay type: physicochemical; details: conventional method (peptide as RS)
Protocol: The purity including individual related substances and the assay of a DP-5P (5 peptides, SEQ ID NOs: 1-5) and DP-7P (7 peptides, SEQ ID NOs: 6-12) mixture were determined by reversed phase rapid HPLC (UPLC) using a mobile phase gradient of acetonitrile and water and UV detection at λ=220 nm.
• Column: RP C18, e.g. Waters Acquity, BEH 130 PST (1.7 μm, 150×2.1 mm) • Sample matrix Eluent A : Eluent B=85:15 (v/v). • Sample concentration 100 μg/mL net peptide (of each drug substance mixture), duplicate • Injection volume: 5 μL • Column temperature: 65° C. • Sample temperature: 5° C. • Detection: UV (λ=220 nm) • Flow rate: 0.3 mL/min • Eluent A: 0.05%v/v TFA and 1%v/v Acetonitrile (ACN) in water • Eluent B: 0.05%v/v TFA in ACN
The relative retention times (RRTs) assigned to peptides and related substances both in a DP-5P (SEQ ID NO: 1-5) and DP-7P (SEQ ID NO: 6-12) mixture was calculated with reference to the retention time of the peptide eluting in the middle (FIG. 1 and FIG. 2). That retention time was used as reference as the main peak of this drug substance was detected approx. in the center of the chromatogram. The related substances were determined by area normalization. The individual related substances were reported≥0.10%a/a. The total related substances were calculated as the sum of all individual related substances equal to or greater than a disregard limit of 0.0500%a/a. The purity was calculated as the difference between total related substances and 100%.
The assay of each of the peptides was calculated against a reference standard solution containing either five peptides (DP-5P) or seven peptides (DP-7P) and was expressed in percent and in mg net peptide/vial. For this reference method, the absorption ratio between the reference substance and the analyte is 1, because the reference substance is the analyte itself.
At T=0 months (TOM) the peptide content was measured using the conventional method of Example 2. From T=48 months (T48M) onwards the peptide content was measured with the conventional method of Example 2 and the method according to the invention of Example 3.

Sequence	Assay (mg/vial) ([1]; DP-5P batch, T48M)	Label claim (% target 0.40 mg/vial) ([1]; DP-5P batch, T48M) [%]	Assay (mg/vial) ([1]; DP-5P batch, T54M)	Label claim (% target 0.40 mg/vial) ([1]; DP-5P batch, T54M) [%]	Assay (mg/vial) ([1]; DP-5P batch, T60M)	Label claim (% target 0.40 mg/vial) ([1]; DP-5P batch, T60M) [%]	Assay (mg/vial) ([2]; DP-5P batch, T0M)	Label claim (% target 0.40 mg/vial) ([2]; DP-5P batch, T0M) [%]	Assay (mg/vial) ([2]; DP-5P batch, T48M)	Label claim (% target 0.40 mg/vial) ([2]; DP-5P batch, T48M) [%]	Assay (mg/vial) ([2]; DP-5P batch, T54M)	Label claim (% target 0.40 mg/vial) ([2]; DP-5P batch, T54M) [%]	Assay (mg/vial) ([2]; DP-5P batch, T60M)	Label claim (% target 0.40 mg/vial) ([2]; DP-5P batch, T60M) [%]	Assay (mg/vial) ([1]; DP-7P batch, T48M)	Label claim (% target 0.40 mg/vial) ([1]; DP-7P batch, T48M) [%]	Assay (mg/vial) ([1]; DP-7P batch, T54M)	Label claim (% target 0.40 mg/vial) ([1]; DP-7P batch, T54M) [%]	Assay (mg/vial) ([1]; DP-7P batch, T60M)	Label claim (% target 0.40 mg/vial) ([1]; DP-7P batch, T60M) [%]	also measured
TLRLCVQSTHVDIRTLEDLLMGTLGIVCPICSQKP (Peptide 5)	0.4028	101	0.4021	101	0.3968	99	0.3976	99	0.4107	103	0.3948	99	0.4011	100	–	–	–	–	–	–	–
HYCYSLYGTTLEQQYNKPLCDLLIR (Peptide 7)	–	–	–	–	–	–	–	–	–	–	–	–	–	–	0.4036	101	0.3980	99	0.3967	99	Assay (mg/vial) ([2]; DP-7P batch, T0M): 0.4393 mg/vial; Label claim (% target 0.40 mg/vial) ([2]; DP-7P batch, T0M): 107%; Assay (mg/vial) ([2]; DP-7P batch, T48M): 0.4279 mg/vial; Label claim (% target 0.40 mg/vial) ([2]; DP-7P batch, T48M): 107%; Assay (mg/vial) ([2]; DP-7P batch, T54M): 0.4219 mg/vial; Label claim (% target 0.40 mg/vial) ([2]; DP-7P batch, T54M): 105%; Assay (mg/vial) ([2]; DP-7P batch, T60M): 0.4222 mg/vial; Label claim (% target 0.40 mg/vial) ([2]; DP-7P batch, T60M): 106%
YGTTLEQQYNKPLCDLLIRCINCQKPLCPEEK (Peptide 12)	–	–	–	–	–	–	–	–	–	–	–	–	–	–	0.4132	103	0.4034	101	0.4010	100	Assay (mg/vial) ([2]; DP-7P batch, T0M): 0.4261 mg/vial; Label claim (% target 0.40 mg/vial) ([2]; DP-7P batch, T0M): 107%; Assay (mg/vial) ([2]; DP-7P batch, T48M): 0.4323 mg/vial; Label claim (% target 0.40 mg/vial) ([2]; DP-7P batch, T48M): 108%; Assay (mg/vial) ([2]; DP-7P batch, T54M): 0.4215 mg/vial; Label claim (% target 0.40 mg/vial) ([2]; DP-7P batch, T54M): 105%; Assay (mg/vial) ([2]; DP-7P batch, T60M): 0.4219 mg/vial; Label claim (% target 0.40 mg/vial) ([2]; DP-7P batch, T60M): 105%
DKCLKFYSKISEYRHYCYSLYGTTL (Peptide 1)	0.3910	98	0.3932	98	0.3701	93	0.4047	101	0.4107	103	0.4088	102	0.4082	102	–	–	–	–	–	–	–
